# Experimental data from paper PMC4031069 (Nature materials, 2014).
# B1: purified recombinant human αvβ6 integrin (receptor)
# chain 1: FNLDVDSPAEYSGPEGSYFGFAVDFFVPSASSRMFLLVGAPKANTTQPGIVEGGQVLKCDWSSTRRCQPIEFDATGNRDYAKDDPLEFKSHQWFGASVRSKQDKILACAPLYHWRTEMKQEREPVGTCFLQDGTKTVEYAPCRSQDIDADGQGFCQGGFSIDFTKADRVLLGGPGSFYWQGQLISDQVAEIVSKYDPNVYSIKYNNQLATRTAQAIFDDSYLGYSVAVGDFNGDGIDDFVSGVPRAARTLGMVYIYDGKNMSSLYNFTGEQMAAYFGFSVAATDINGDDYADVFIGAPLFMDRGSDGKLQEVGQVSVSLQRASGDFQTTKLNGFEVFARFGSAIAPLGDLDQDGFNDIAIAAPYGGEDKKGIVYIFNGRSTGLNAVPSQILEGQWAARSMPPSFGYSMKGATDIDKNGYPDLIVGAFGVDRAILYRARPVITVNAGLEVYPSILNQDNKTCSLPGTALKVSCFNVRFCLKADGKGVLPRKLNFQVELLLDKLKQKGAIRRALFLYSRSPSHSKNMTISRGGLMQCEELIAYLRDESEFRDKLTPITIFMEYRLDYRTAADTTGLQPILNQFTPANISRQAHILLDCGEDNVCKPKLEVSVDSDQKKIYIGDDNPLTLIVKAQNQGEGAYEAELIVSIPLQADFIGVVRNNEALARLSCAFKTENQTRQVVCDLGNPMKAGTQLLAGLRFSVHQQSEMDTSVKFDLQIQSSNLFDKVSPVVSHKVDLAVLAAVEIRGVSSPDHVFLPIPNWEHKENPETEEDVGPVVQHIYELRNNGPSSFSKAMLHLQWPYKYNNNTLLYILHYDIDGPMNCTSDMEINPLRIKISSLQTTEKNDTVAGQGERDHLITKRDLALSEGDIHTLGCGVAQCLKIVCQVGRLDRGKSAILYVKSLLWTETFMNKENQNHSYSLKSSASFNVIEFPYKNLPIEDITNSTLVTTNVTWGIQPAPMPV
# chain 2: GCALGGAETCEDCLLIGPQCAWCAQENFTHPSGVGERCDTPANLLAKGCQLNFIENPVSQVEILKNKPLSVGRQKNSSDIVQIAPQSLILKLRPGGAQTLQVHVRQTEDYPVDLYYLMDLSASMDDDLNTIKELGSRLSKEMSKLTSNFRLGFGSFVEKPVSPFVKTTPEEIANPCSSIPYFCLPTFGFKHILPLTNDAERFNEIVKNQKISANIDTPEGGFDAIMQAAVCKEKIGWRNDSLHLLVFVSDADSHFGMDSKLAGIVIPNDGLCHLDSKNEYSMSTVLEYPTIGQLIDKLVQNNVLLIFAVTQEQVHLYENYAKLIPGATVGLLQKDSGNILQLIISAYEELRSEVELEVLGDTEGLNLSFTAICNNGTLFQHQKKCSHMKVGDTASFSVTVNIPHCERRSRHIIIKPVGLGDALELLVSPECNCDCQKEVEVNSSKCHHGNGSFQCGVCACHPGHMGPRCECGEDMLSTDSCKEAPDHPSCSGRGDCYCGQCICHLSPYGNIYGPYCQCDNFSCVRHKGLLCGGNGDCDCGECVCRSGWTGEYCNCTTSTDSCVSEDGVLCSGRGDCVCGKCVCTNPGASGPTCERCPTCGDPCNSKRSCIECHLSAAGQAREECVDKCKLAGATISEEEDFSKDGSVSCSLQGENECLITFLITTDNEGKTIIHSINEKDCPKPPNIP
# Biological target: monomeric biotinylated FN7-10 (biotin (biotinylated; site not stated))
# Assay: SPR
binder,measurement,value
B1,kont relative to α5β1,~0.5 fold
